Measurements reported in the supplement of paper PMC12667976.
± gives the standard error.

B1: library; numbered along this chain (parent)
chain: MATDAALRRLLRLHRTEIAVAVDSAFPLLHALADHDVVPEDKFQETLHLKEKEGCPQAFHALLSWLLTQDSTAILDFWRVLFKDYNLERYGRLQPILDSFPKDVDLSQPRKGRKPPAVPKALVPPPRLPTKRKASEEARAAAPAALTPRGTASPGSQLKAKPPKKPESSAEQQRLPLGNGIQTMSASVQRAVAMSSGDVPGARGAVEGILIQQVFESGGSKKCIQVGGEFYTPSKFEDSGSGKNKARSSSGPKPLVRAKGAQGAAPGGGEARLGQQGSVPAPLALPSDPQLHQKNEDECAVCRDGGELICCDGCPRAFHLACLSPPLREIPSGTWRCSSCLQATVQEVQPRAEEPRPQEPPVETPLPPGLRSAGEEVRGPPGEPLAGMDTTLVYKHLPAPPSAAPLPGLDSSALHPLLCVGPEGQQNLAPGARCGVCGDGTDVLRCTHCAAAFHWRCHFPAGTSRPGTGLRCRSCSGDVTPAPVEGVLAPSPARLAPGPAKDDTASHEPALHRDDLESLLSEHTFDGILQWAIQSMARPAAPFPS

Variants of: B1
Assay: AIRE transcriptional activation functional score (insulin promoter-GFP; nonsense median 0, synonymous median 1) (normalised score); higher = higher AIRE activity (more reporter activation)
Conditions: with insulin promoter-GFP reporter in HEK293
In short: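 Codon-optimized AIRE NNN-codon libraries (three regions) were integrated by Bxb1 recombinase into Flp-In T-REx HEK293 landing-pad cells carrying an insulin core promoter-GFP reporter. Integrants (mCherry+, BFP−) sorted at day 7 were expanded 7 days; top 10% GFP and unselected integrant populations were tile-sequenced. Functional score is select versus non-select variant enrichment, wild-type subtracted. Variants needed 10 counts per million in non-select; scores were rescaled to nonsense median 0 and synonymous median 1, then averaged over biological replicates.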

L67E and T3P are within error of each other in “AIRE transcriptional activation functional score” value: -0.592 ± 0.38 for the first, -0.0536 ± 0.46 for the second.

Going from R471M to V393D, the “AIRE transcriptional activation functional score” value falls from 1.36 ± 0.14 to 0.48 ± 0.17.

V80H and V20L are within error of each other in “AIRE transcriptional activation functional score” value: -0.971 ± 1.8 for the first, 0.278 ± 0.32 for the second.

W455V and P176S are within error of each other in “AIRE transcriptional activation functional score” value: 1.17 ± 0.15 for the first, 1.4 ± 0.46 for the second.

First: K245T
Second: A505F
The “AIRE transcriptional activation functional score” value of the first is lower: -0.0733 ± 0.24 for the first, 0.703 ± 0.13 for the second.

L406R and P401S are within error of each other in “AIRE transcriptional activation functional score” value: 0.985 ± 0.22 for the first, 1.25 ± 0.26 for the second.

Compared with V362S, H507D is lower in “AIRE transcriptional activation functional score” value: 1.07 ± 0.23 for the first, 0.604 ± 0.13 for the second.

Going from A452D to I96N, the “AIRE transcriptional activation functional score” value falls from 0.712 ± 0.14 to 0.24 ± 0.24.

Compared with S412L, Q57H is lower in “AIRE transcriptional activation functional score” value: 1.15 ± 0.28 for the first, -0.168 ± 0.11 for the second.

G462I and S506D are within error of each other in “AIRE transcriptional activation functional score” value: 0.802 ± 0.27 for the first, 1.11 ± 0.088 for the second.

Compared with E45I, E207P is higher in “AIRE transcriptional activation functional score” value: -1.78 ± 0.28 for the first, 0.476 ± 0.2 for the second.

L283A and L283C are within error of each other in “AIRE transcriptional activation functional score” value: 1.02 ± 0.32 for the first, 0.771 ± 0.21 for the second.

F43I and F59A are within error of each other in “AIRE transcriptional activation functional score” value: -0.197 ± 0.56 for the first, 0.101 ± 0.57 for the second.

Compared with L308D, K83I is lower in “AIRE transcriptional activation functional score” value: 0.755 ± 0.059 for the first, 0.0909 ± 0.16 for the second.

Compared with K83E, L385C is higher in “AIRE transcriptional activation functional score” value: -0.351 ± 0.23 for the first, 1.42 ± 0.073 for the second.

L122W and K114I are within error of each other in “AIRE transcriptional activation functional score” value: 0.871 ± 0.048 for the first, 1.03 ± 0.35 for the second.

Going from T480C to T480Q, the “AIRE transcriptional activation functional score” value falls from 1.12 ± 0.052 to 0.203 ± 0.14.

First: K120D
Second: G155M
The “AIRE transcriptional activation functional score” value of the first is lower: 0.677 ± 0.3 for the first, 2.34 ± 0.066 for the second.

First: L128C
Second: F453H
The “AIRE transcriptional activation functional score” value of the first is higher: 1.19 ± 0.3 for the first, 0.147 ± 0.12 for the second.

Compared with T390C, S64D is lower in “AIRE transcriptional activation functional score” value: 0.472 ± 0.29 for the first, -0.252 ± 0.077 for the second.

C472A and C472G are within error of each other in “AIRE transcriptional activation functional score” value: -0.164 ± 0.22 for the first, 0.0511 ± 0.1 for the second.

P126H and W65A are within error of each other in “AIRE transcriptional activation functional score” value: 0.139 ± 0.23 for the first, -0.93 ± 1.4 for the second.

D439Y and T524Y are within error of each other in “AIRE transcriptional activation functional score” value: 1.35 ± 0.1 for the first, 1.4 ± 0.066 for the second.

First: K52C
Second: E508L
The “AIRE transcriptional activation functional score” value of the first is lower: -0.346 ± 0.18 for the first, 0.506 ± 0.33 for the second.

Compared with D502E, E171W is higher in “AIRE transcriptional activation functional score” value: 0.952 ± 0.26 for the first, 1.93 ± 0.073 for the second.

P398T and P509E are within error of each other in “AIRE transcriptional activation functional score” value: 1.21 ± 0.21 for the first, 1.16 ± 0.23 for the second.

A205E and A205Q are within error of each other in “AIRE transcriptional activation functional score” value: 0.647 ± 0.071 for the first, 0.529 ± 0.048 for the second.

First: P95Y
Second: S491I
The “AIRE transcriptional activation functional score” value of the first is higher: 1.97 ± 0.6 for the first, 1.1 ± 0.2 for the second.

Compared with L87C, D288F is higher in “AIRE transcriptional activation functional score” value: 0.115 ± 0.26 for the first, 1.5 ± 0.13 for the second.

D297A and H319W are within error of each other in “AIRE transcriptional activation functional score” value: 0.963 ± 0.28 for the first, 0.996 ± 0.069 for the second.

First: H319I
Second: P355Q
The “AIRE transcriptional activation functional score” value of the first is lower: 0.263 ± 0.18 for the first, 1.24 ± 0.15 for the second.

P355R and P355G are within error of each other in “AIRE transcriptional activation functional score” value: 1.04 ± 0.27 for the first, 1.06 ± 0.15 for the second.

Compared with T463G, E353K is higher in “AIRE transcriptional activation functional score” value: 1.01 ± 0.066 for the first, 1.17 ± 0.078 for the second.

Going from G486D to P483G, the “AIRE transcriptional activation functional score” value rises from 0.692 ± 0.16 to 1.89 ± 0.095.

R9Y and R9F are within error of each other in “AIRE transcriptional activation functional score” value: 0.868 ± 1.2 for the first, -0.124 ± 0.19 for the second.

A404D and L495T are within error of each other in “AIRE transcriptional activation functional score” value: 0.792 ± 0.33 for the first, 0.948 ± 0.16 for the second.

First: A25F
Second: D304S
The “AIRE transcriptional activation functional score” value of the first is lower: 0.583 ± 0.3 for the first, 1.42 ± 0.18 for the second.

First: D304K
Second: S185M
The “AIRE transcriptional activation functional score” value of the first is higher: 1.11 ± 0.28 for the first, -0.432 ± 0.26 for the second.

Compared with S185D, E347C is higher in “AIRE transcriptional activation functional score” value: 0.436 ± 0.23 for the first, 1.15 ± 0.025 for the second.

L428F and L428S are within error of each other in “AIRE transcriptional activation functional score” value: 1.09 ± 0.22 for the first, 1.15 ± 0.15 for the second.

Going from V345Y to A432M, the “AIRE transcriptional activation functional score” value falls from 1.02 ± 0.18 to 0.0975 ± 0.032.

E17G was tested, and the “AIRE transcriptional activation functional score” value was -0.233 ± 0.71.
